The values below come from publication PMC2942778 (Biochemistry, 2010).

This data set deals with the molecule itself. Nature of the data set: AUC.

B1: BlaI gene repressor (blaI gene product) of plasmid pI258 from S. aureus NRS128 (natural protein)
chain: MANKQVEISMAEWDVMNIIWGKKSVSANEIVVEIQKYKEVSDKTIRTLITRLYKKEIIKRYKSENIYFYSSNIKEDDIKMKTAKTFLNKLYGGDMKSLVLNFAKNEELNNKEIEELRDILNDISKK
Turning to B1, the Kd (in general, a measure of binding affinity in units of concentration) amounted to 1610 ± 20 nM and the stoichiometry N (as a rule, a count of units in the complex or per binding partner) is 2.
